Data as given in a protein production outcome set (Wang et al. 2014).

Experiment: label from the status in PepcDB records
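Note: failed if final PepcDB status was selected cloned or expressed and not failed if soluble or beyond.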

Row | Sequence | protein production
1 | MLRHIVLLILLSSEVRGVCNRIPQGASGPRSPVDDNFKILIDGNPETYVPEHQYNVSLSCPINMKFVSFTLVVEAEDPSAAFGGQDMTGHFELLGVGDTRFSTSCENMVENTNTNAKIYIAVSWIAPRNPDSGCVLIKAGVVQHRDVWFLDDGFLTKRICPEEIDELNSLTPPLETCCACDEAKYEIVLERKWARNTHWKDFPSEDWRTRLGEVIGASHSHSYRYWAYGGRASKGMKELAEHGATRTLENEIRENTQNGEVRTIIKAPGIPYRPKTFGTTLANARLDPVHHQISLAAKIDPSPDWILGVAGLELCLSNCTWLERKSSDEPQVPPDVVRRITSSYPSDHRSPFYDDTGAPMKPLATLYLTRKKLYIRECEEVLVPQEGPLECAVHPWNEWTNCSTRCGQGYSHRQRSFKNPNLAANFNCDRRLEEFRQCQGTQCGAAEEELEGEEPGLGMENPPSSGSMAECQLTNWGEWSPCTKTCGRGSSTRTRDYYNPQARQRCLSVMRIPLEETRECIGSDCGGTIPDNGELDGFPEPDVFGETDHGGYMGKTTSWNSKQEHSSLGSGNQAWNRKPYNSWKDKSLSNPRDNAQESPNLPFDQIENPQRPAYNPSDNMGGYDKGFPPTNSYSNDKLVGNRPGYNDFNSDYNNKDAYNDYTTPSFTSRTPFGSRYPNQQETVEGNTNDINGNYNVVQDYCFEKPYASTLPCFAKPVVESNYWFYDHEDHECKIFTTDNCDQNRNRFRTLTACEGTCLQPQINMERSENDAMDLYGRRSYDQKQTRDHISKQEVDPMINQKIGPMTYRQQEVDPMEKPVKQVILENPCRRPGADTTHPDAVGMAAEQIKAFKSPKLEENKY | failed
2 | MLRKNILAYYGANFLLIIAQSLPHAILTPLLLSKGLSLSEILLVQTFFSFCVLVAEYPSGVLADLMSRKNLFLVSNAFLIASFSFVLFFDSFIFMLLAWGLYGLYSACSSGTIEASLITDIKENKKDLSKFLAKNNQITYLGMIIGSSLGSFLYLKVHAMLYIVGIFLIMLCVLTIIFYFKEKEGDFKSQKSLKLLKEQVKGSLKELKDNPKLKILLVGHLITPVFFMSHFQMWQAYFLKQGVKEQYLFVFYIAFQVISILIHFLKASSYSQKIALSSLVVLLGVSPLLLSNIPYCFIGVYALMVAFFTYMSYCLNYQFSKFVSKNNISSLSSLLSSCVRVVSVLILSLSSLELRYFSPLTIITMHFALTLIILFFFLYKAKPFDE | failed
3 | MLRRIVALAAVAAGGMMLSKTFRKSRDSGYTSSVENFIEVNVPVSTAYNQWTQFEEFPRFMKGVREVQQIDDTHLHWRAEIAGKEEEWDAEITEQVPDQRIAWHSTNGAKNSGVVSFYGISDSKTRVVLKMDYGPRTFLEGLGDALGAVKARTSEDLRCFKEFLESRGKETGAWRGSVGQH | failed
4 | MLRSLLVPLFSNAASSTDDHGITLPQYQVFINFRGDELRNSFVGFLVKAMRLEKINVFTDEVELRGTNLNYLFRRIEESRVAVAIFSERYTESCWCLDELVKMKEQMEQGKLVVVPVFYRLNATACKRFMGAFGDNLRNLEWEYRSEPERIQKWKEALSSVFSNIGLTSDIRRYNLINKNMDHTSEFLYIVLILNFFSEISDMTGLTTSYQFLLMMKSNLISYDIYIYPTKFCVNVFIGV | failed
5 | MLRSTVIVTAHRRKAFIKDAIESVMENSLKPTEIIVVKNFKDYQIDSFLETYHVKNIYTDDETLGGKISLGIYQSSGDILFFLDDDDLFSKDKIREVIYKFSKYDIGFYHNAQEVIHNKLTGSNLSTDNQRFMYYTSIDTRRLKELLYKFKAGFNGSSIVISRDLAMRCVDLLKNVNISVDTFLLFCAVENNLPIMIDFRKLTYYRIIMSQNSNTEVNDKLFKMLYEDALYFKQIFSSKALRDFIEMSIIQHDFLYKIISKKEISKRDALISMVKMLRYSLKYPNKWNFFLQGLSLLSVFSAEKSRSLYLKKVRSNSMLSILEHHHHHH | not failed
6 | MLSEQKEIAMQVSGMTCAACAARIEKGLKRMPGVTDANVNLATETVNVIYDPAETGTAAIQEKIEKLGYHVVTEKAEFDIEGMTCAACANRIEKRLNKIEGVANAPVNFALETVTVEYNPKEASVSDLKEAVDKLGYKLKLKGEQDS | not failed
7 | MLSFLSARQSGLEDPLRLRRAQSTRRVLGLELNKDRDVERIHGSGVNTLDIEPVEGRYMLSGGSDGVVVLYDLENASRQPHYTCKAVCSVGRSHPDVHKYSVETVQWYPHDTGMFTSSSFDKTLKVWDTNTLQAADVFNFEETVYSHHMSPAATKHCLVAVGTRGPKVQLCDLKSGSCSHILQGHRQEILAVSWSPRHDYILATASADSRVKLWDVRRASGCLLTLDQHNGKKSQAAESANTAHNGKVNGLCFTSDGLHLLTIGTDNRMRLWNSSSGDNTLVNYGKVCNDSRKGLQFAVSCGCSSEFVFVPHGSTIAVYAVHSGERLAMLKGHYKSVDCCVFQPNFQELYSGSRDCNILAWVPPSYEPVPDDDDEAPAKSQLNPAFADAWSSSDEDG | failed
8 | MLSFVVMSFLIFVIVMVNEHKAHLSVIQKMILAVVNGSITIILSIIVFYIFYPQNISLFLITAGILTVFVFLYGLLLFLFGFTHRELSYLSKYDKYKFLCKFTIEMFSSLTNHAFLTISAIVLYQIQHPKPTIDFIVMIGMITISVIVVMLLFLKTYSIIIKQLKKLENN | failed
9 | MLSIIEQIKQGQLWDFHGGIHPEENKTISNQAAIQQAGIPSQLVLPLKQHIGGKGDILVSVGDVVLKGQPLTQGNIAMCVPVHAPTSGRITAIEPRTVAHPSGLTDLCIVIESDGEDRWVEDRTPIDDFSSVDPIDLIERIRQSGISGMGGAGFPTSRKIQSGIGKAEMLIINAAECEPYITADDRLMREHAEEIIDGIKILQHILTPKVCIIAIEDNKPEAVKALNQAVTDHDNIIIRVIPTKYPSGGSRQLTKIITGQEVPANGRSTDIGVIVQNVGTVFAIKRAICDAEPLIERIVTLTGNSMSTPGNLWVRLGTCIDYLMELVGYKADKKHPRIIMGGSLMGFTLPHQQVPITKITNCIITPDKKELPLYNHEMACIRCSSCADACPTSLLPQQLYWYSKSEDYDKCNEYNLNDCIECGACAYVCPSEIPLVQYYRQAKSEIYSRKQDALAAERAKLRFEEKNARLERDKLERENKFKQAAENRRKEMKTENKGGDDAIAAAIARVKAQKAAQESGVAAPKPAVAAAIARAKAKQAEAAKSETSVPDNSEMAKLREERKQQARERKAKLAEETTATDSDKSEKKDAVAAAIARAKARKAAQAEEKTETPVASEEKNQNTEGSADPKKAAVAAAIARAKARKAAQAEEKTETPVTSEEKNQNTEGSADPKKAAVAAAIARAKARKAAQAEEKTETPVASEEKNQNTEGSADPKKAAVAAAIARAKARKAAQAEEKTETPVTSEEKNQNTEGSADPKKAAVAAAIARAKARKATQAEEKTETPVTSEEKNQNTEESADPKKAAVAAAIARAKARKAAQENNKKEE | failed
10 | MLSKNNFNEKLMQMNNQKAHFSIRKLTIGAASVLIGITFMGINGQTVNADEMTGNTQPEAMQVSTDKSTDATTTQQNDSDSSAQKNAAQTVEVPQNSKQDNTGETSQSTTDKKDTQVQKTESSETKADTAQSQVPPAANQTQKSADQNVENTQSPVASNTTQPKTQNDSKYNVADWGGSLNDETHEYTLNKYNGSDKENIYIPNTEDFIKAGKITDIDKVFITKDLIQNITKNGATSIVIDDQGSEDKNKVYAKGDWSNAFAGSTKLKSVDLSHLDTSQVTSMAGAFNGDTGLNDANLSGWNIQNMTNLSSLFYGANNLYNVDMSGWNFINNPNTNSMFSYADYNLKSVNLKNAKNVTDDILRIYARAIKNSNATTADLSDINLSPNVTSLHGLFSNMPDLKNVNLSGLDISHITDMGGMFSGDSNLESLDLSGLDLSKVTNTNNMFDWVGGKIKSVNITNTKSIPRSILDIYLKALSNTGTTTVDLSGINLSPNVTSLHGLFANMPNLGSANLSGLDISHITDMGGMFFNDTSLKSVNLSGLNLEKVKDLSTMFYGANNLENVDFSNTKFAPDANTNVMFAFADTKLQSVNINGTKNITREVLDAVIRAAKNSNATTLDLSGVSFSPSITSFNNLFSNMPNIESIDLTGWDTSHITDMSYMFFNDPKLKIIKGLEDFNTSNVTNMAYMFAAFNNPTTDNYDPKGLESLGHLTKLDLSNWDTSNVTNMLYMFAGQTNLTSLGDLSKWNTSKVTNMAYMFYDLKNIDDGKLDLTGWDTSNVTDMSYMFFNMFLQKDLSFVNDWNTGKVTDMSYMFANDKNLEKLDLSKWDVSSVGLKHTEQNYSLAMMFAGDTSLTTVGDISHWNTKNVHDTRQMFYNTPKLTNIDLSGWNTGKLQIAEGMFNSSGAKQINLDNWDLSNIKRITPAGYVEGKAGVGVLRGVENMFKNLTNPAVISMNKVILPDARNAFEINDFEGNKAIVVIANGQNGEALQDLLKINNQTWTDKSGNNVTGRQNSDYVTYVRADDNSNQIGQRGLNFIFTNLDDLHQYFNQVTNADNVKNDIGELSHDWDAQQDTDNNIVKITLRLSPASSYDPYSENIHAEKDGNILADLMTSKYQLHIVAPTNTTETKKPTRTIIIENPDGTTSTKEQTVEFKREVTKHVDGTEEATSWTPTSGEWTKFDVPQIAGYDSYVDGTQSKSVASEPVNKDTENVTVVITYKSNAVNPEPIIPDPVKPEVDPDKKDPQEPKTDPVTPTPDEPENPKPEKKPSNPDKRKDDNSKVVKPHGENKAAKKNHSSVEHKKTGTHTIKLSHRVAPKGTQATNGSKKSTSTVNKAADNNKNTLPQTGEKKSNAGLIGLALIALASLGLIDRKRRD | failed
11 | MLSNRFNRWTVAAIALMGTAIATVPGRVLAQTPDHPSDTAAQFPTRNDLKSLTTSGSYLAARHASVERDATSAAAFYRSALRTDPKNNELLDRAFISSVADGDIDEAVKLAERVLTIDKTNRVARLVVGVHDLKMKKYATAQTNINQSIRGPITDLVATLLSGWAAYGAGDSKGAVATIDKLAGPEWYPLFKDLHAGMILELAGKEKDAGTRFERAYKLDDSMLRVTEAYARWLSRNKDAAAATTVYQAFDKKLARHPLIVEGLRDTKAGKKLPPLVDSAQAGAAEALYGIGATLTRRGGEDLALVYLQLSLYLQPTHPLALLSLADLYESVKRPQMAIKVYERVPSTSPLKRNAQIQLAIDLDSADRTDEAIKILKGVTSEDSKDLEAIMALGNIERGRKKFGDCGATYSQGVDVLPAGNDKANSVWYYYRGICEERSKQWAKAEADMKKALELQPDQPHVLNYLGYSWIDQGVNLDEGMKMIKRAVEQRPDDGYIVDSLGWAYYRIGNYEEAVKNLERAIDLKPEDPTINDHLGDAYWRVGRTLEAKFQWSHARDLKPEPDELPKIEAKIANGLTEDNSNSSAAQAEKKKDDGKGG | failed
12 | MLTDPFFYLVAIPAVILLGLTKGGFAGIGVVAVPMMTLAVSPVMAASIILPILLVQDVVSVWSFRKTWDKAILVLMLPAAAVGIFLGWALAALVEEAAVELAVGAISVVFALQRLWAEHALRAADSIEAGPARPWLGVLCGATAGFTSQIAHAGGPPFQIYVLPRGLPRDVFIGTSAIFFGVVNWMKVPAYLALGQLTPQALATAGVLLPLAIASTWAGVWLVRRVPAEGFYKVIYVLLVLVGGKLMFDGARGLLT | failed
13 | MLTFAPLNFLAIGVGATLGAWLRWVPGLRLNGAGWPWGTLTANLVGGYLIGVMVALIASHPEWPAWIRLAAVTGFLGGLTTFSTFSAETVDMLERGVYATAAAYAGASLAGSLAMTGLATVRLLLR | failed
14 | MLTFFIGDLLPIIVIMLLGYFSGRRETFSEDQARAFNKLVLNYALPAALFVSITRANREMIFADTRLTLVSLVVIVGCFFFSWFGCYKFFKRTHAEAAVCALIAGSPTIGFLGFAVLDPIYGDSVSTGLVVAIISIIVNAITIPIGLYLLNPSSGADGKKNSNLSALISAAKEPVVWAPVLATILVLVGVKIPAAWDPTFNLIAKANSGVAVFAAGLTLAAHKFEFSAEIAYNTFLKLILMPLALLLVGMACHLNSEHLQMMVLAGALPPAFSGIIIASRFNVYTRTGTASLAVSVLGFVVTAPLWIYVSRLVS | failed
15 | MLTGLKIAVIGGDARQLEIIRKLTEQQADIYLVGFDQLDHGFTGAVKCNIDEIPFQQIDSIILPVSATTGEGVVSTVFSNEEVVLKQDHLDRTPAHCVIFSGISNAYLENIAAQAKRKLVKLFERDDIAIYNSIPTVEGTIMLAIQHTDYTIHGSQVAVLGLGRTGMTIARTFAALGANVKVGARSSAHLARITEMGLVPFHTDELKEHVKDIDICINTIPSMILNQTVLSSMTPKTLILDLASRPGGTDFKYAEKQGIKALLAPGLPGIVAPKTAGQILANVLSKLLAEIQAEEGK | failed
